Assays:
Assay type in all cases: cell-based, human
[1] = system: HL-60 cells adhered to HUVEC cells; assay: Binding between inflammatory cells HL-60 and HUVEC induced by TNF-a; details: 1 ng/ml TNF-a; 0.2 ug/ml Ang1 or 0.1 ug/ml Ang2 + 0.5 ug/ml 10D6
Experimental: Meanwhile, if the expression of inflammatory adhesion substances (ICAM-1, E-selectin, etc.) of vascular endothelial cells is increased, binding between the inflammatory cells and the vascular endothelial cells are accelerated and inflammatory response is thus induced. To confirm this, an experiment for measuring binding between inflammatory cells HL-60 (ATCC) and HUVEC was conducted.
HUVEC cells (4×10^5) were cultured in a 24-mutiwell plate and treated with 0.1 ug/ml of Ang2 alone or 0.1 ug/ml of Ang2 together with 0.5 ug/ml of antibody 10D6, and a group in which 0.2 ug/ml of Ang1, and 0.1 ug/ml of Ang2 (R&D systems) and 0.5 ug/ml of Regeneron Co. antibody (RG antibody) were co-treated was included as a control group. As above, the HUVEC cells were treated with Angiopoietin and antibody and after 30-min. pre-incubation, they were treated with 1 ng/ml of TNF-a (eBioscience) to induce inflammatory response and incubated for 2 hours and 30 min.
After the HUVEC cells were washed with complete media (Lonza), HL-60 cells dyed with Calcein-AM (BD bioscience) solution were added at the amount of 2.5×10^5 cells to each well and incubated for 1 hour. […] The obtained lysate was transported to a 96-well plate, and fluorescence strengths derived from the HL-60 cells were measured at 485/535 nm (Ex/Em) setting using an Envision 2104 multilabel Reader (Perkin Elmer).

HUVEC monolayer = assay: In vitro vascular permeability assay (FITC-dextran); details: 200 ng/ml Ang1 alone or 200 ng/ml Ang2 + 1 ug/ml 10D6
Experimental: To see the cell permeability suppression effects of antibody 10D6, in vitro vascular permeability assay kit (Millipore) was employed. HUVEC (ATCC) cells (5×10^4) were added to a collagen-coated transwell and cultured for 2 days to prepare a confluent monolayer. It was treated with 200 ng/ml of Ang2 or 200 ng/ml of Ang1 (R&D systems) alone, or 200 ng/ml of Ang2 and 1 ug/ml of antibody 10D6, pre-incubated for 30 min. and then, treated with 100 ng/ml of LPS (Lipopolysaccharide; Sigma) or 100 ng/ml TNF-a (R&D systems) to induce the permeability of HUVEC monolayer. LPS or TNF-a weakens binding between HUVEC cells to form a gap therebetween, thereby increasing the migration of materials in the HUVEC monolayer. After 6-hour incubation for the LPS treatment group and 22-hour incubation for the TNF-a group, the upper chamber was treated with FITC-dextran (Millipore) and incubated for 18 min. The fluorescence of FITC-dextran migrated to the lower chamber was measured at 485/535 nm (Ex/Em) setting using an Envision 2104 multilabel Reader (Perkinelmer).

ICAM-1 = assay: LPS-induced mRNA expression of ICAM-1 in HUVEC (qPCR); details: 100 ng/ml LPS 5 hours, 0.2 ug/ml Ang1 or 0.1 ug/ml Ang2 + 0.5 ug/ml antibody
Experimental: (§1) To see anti-inflammatory effects by antibody 10D6, HUVEC (ATCC) cells (4×10^5) were treated with Ang2 alone or Ang2 together with antibody 10D6, and a group in which Ang1 and Ang2 (R&D systems) and Regeneron Co. antibody (RG antibody) were co-treated was included as a control group. HUVEC cells were treated with 0.2 ug/ml of Ang1, 0.1 ug/ml of Ang2, or 0.1 ug/ml of Ang2 and 0.5 ug/ml of antibody, respectively and after 30-min. pre-incubation, they were treated with 100 ng/ml of LPS (Sigma) to induce inflammatory response and incubated for 5 hours.
(§2) The degree of the inflammatory response was identified by measuring the mRNA expression degree of an inflammatory adhesion substance (ICAM-1, E-selectin). The cells were washed using PBS, RNA was extracted using RNeasy Mini kit (Qiagen), and among them, 2 ug of RNA was synthesized into cDNA using Transcriptor First Strand cDNA synthesis kit (Roche). qPCR reaction was performed using RT2 SYBR™ Green Mastermix (Qiagen) and LightCycler™ 480 Real-Time PCR System (Roche). As an internal control for calibrating the amount of RNA in a sample, HPRT1 was used, and qPCR complied with the following procedures with regard to all the primers.
(§3) Step 1: 95° C., 10 min; Step 2 (45 cycles): Step 2-1: 95° C., 15 sec; Step 2-2: 60° C., 1 min; Step 3: 65° C., 15 sec; Step 4: 95° C., continuous (every 20° C.); Step 6: 40° C., 10 sec.

Akt, eNOS and 42/44 = assay: Phosphorylation of Tie2 downstream signaling proteins in HUVEC (immunoblot); details: 60 nM 10D6 + 40 nM Ang2, or Ang1 4 nM alone, 30 min
Experimental: To see whether antibody 10D6 induces the activation of the downstream signaling of a Tie2 receptor as well as the activation of the Tie2 receptor itself, the phosphorylation degrees of proteins participating in the downstream signaling when Ang2 alone or Ang2 and antibody 10D6 was treated were tested using immune blotting.
Specifically, HUVEC (ATCC) cells (1×10^6) were cultured in a 6-well culture dish using EGM-2 (Lonza) media at 37° C. and when they reached 80˜90% confluency, the media were replaced with serum-free media (Lonza) and cultured at 37° C. for 6 to 16 hours. The dish was washed once with PBS, and the cultured cells were treated with a mixture prepared by mixing 60 nM of the Ang2 antibody (10D6) with 40 nM of Ang2 protein (R&D systems) and letting them stand for 20 min. and further cultured for 30 min. For comparison, groups in which Ang1 (R&D systems) 4 nM, Ang2 (R&D systems) 40 nM, and Ang2 (R&D systems) 40 nM+anti-Ang2 antibody (Regeneron) 60 nM were treated respectively were prepared.
The cells were washed using PBS, treated with a lysis buffer (Roche), collected to a tube to be dissolved at 4° C. for 30 min. and then, centrifuged at 13,000 rpm for 15 min. to measure a supernatant. A sample buffer (Invitrogen) mixed with a reducing agent was added to 25 ug of a cell lysate, which was boiled at 95° C. for 5 min., and then, applied to NuPAGE Novex 4-12% Bis-Tris gel (Invitrogen) and transferred onto Nitrocellulose membrane (Invitrogen).
To see the presence of the phosphorylation of Akt, eNOS and 42/44 involved in the downstream signaling, the blots were blocked with PBST mixed with 3% (v/v) skim milk (Sigma) for 30 min. and then treated with an anti pAkt antibody, anti p-eNOS antibody, and anti p-42/44 antibody (all of them; cell signaling). The blots were reacted in a stripping buffer (Thermo) for 15 min. and then blocked again to identify Akt, eNOS, and 42/44 using an anti Akt antibody, anti eNOS antibody, and anti 42/44 antibody (all of them; cell signaling).

E-selectin = assay: LPS-induced mRNA expression of E-selectin in HUVEC (qPCR); details: 100 ng/ml LPS 5 hours, 0.2 ug/ml Ang1 or 0.1 ug/ml Ang2 + 0.5 ug/ml antibody
Experimental: as §1, §2, §3

B1: Ang1: Angiopoietin-1 protein (R&D systems), ligand which activates the Tie2 receptor (protein, UniProt Q15389 16-498, looked up)
Angiopoietin-1: HIGCSNQRRSPENSGRRYNRIQHGQCAYTFILPEHDGNCRESTTDQYNTNALQRDAPHVEPDFSSQKLQHLEHVMENYTQWLQKLENYIVENMKSEMAQIQQNAVQNHTATMLEIGTSLLSQTAEQTRKLTDVETQVLNQTSRLEIQLLENSLSTYKLEKQLLQQTNEILKIHEKNSLLEHKILEMEGKHKEELDTLKEEKENLQGLVTRQTYIIQELEKQLNRATTNNSVLQKQQLELMDTVHNLVNLCTKEGVLLKGGKREEEKPFRDCADVYQAGFNKSGIYTIYINNMPEPKKVFCNMDVNGGGWTVIQHREDGSLDFQRGWKEYKMGFGNPSGEYWLGNEFIFAITSQRQYMLRIELMDWEGNRAYSQYDRFHIGNEKQNYRLYLKGHTGTAGKQSSLILHGADFSTKDADNDNCMCKCALMLTGGWWFDACGPSNLNGMFYTAGQNHGKLNGIKWHYFKGPSYSLRSTTMMIRPLDF
binding between HUVEC cells and HL-60 cells induced by TNF-a [1]: remarkably suppressed | vascular permeability increased by LPS (HUVEC monolayer; 100 ng/ml LPS, 6 hour): decreased to the control level | vascular permeability increased by TNF-a (HUVEC monolayer; 100 ng/ml TNF-a, 22 hour): decreased to the control level | expression of ICAM-1 induced by LPS (ICAM-1): remarkably suppressed | downstream signaling (phosphorylation of Akt, eNOS, 42/44) compared to Ang2 sole-treatment and Ang2 + RG antibody (Akt, eNOS and 42/44): strongly induced | expression of E-selectin induced by LPS (E-selectin): remarkably suppressed

Source: patent US9505841B2, “Use of an anti-Ang2 antibody” (Samsung Electronics Co., Ltd., priority 2013, dated 2016)
